This is an account of results in PMC11098746 (2024).

B1: ADP146 (protein)
chain: MVAWRSAFLVCLAFSLATLVQRGSGDFDDFNLEDAVKETSSVKQPWDHTTTTTTNRPGTTRAPAKPPGSGLDLADALDDQDDGRRKPGIGGRERWNHVTTTTKRPVTTRAPANTLGNDFDLADALDDRNDRDDGRRKPIAGGGGFSDKDLEDIVGGGEYKPDKGKGDGRYGSNDDPGSGMVAEP
modifications: bait human Fc-tagged dimer
B2: ADP325 (protein)
chain: MAAAQEADGARSAVVAAGGGSSGQVTSNGSIGRDPPAETQPQNPPAQPAPNAWQVIKGVLFRIFIIWAISSWFRRGPAPQDQAGPGGAPRVASRNLFPKDTLMNLHVYISEHEHFTDFNATSALFWEQHDLVYGDWTSGENSDGCYEHFAELDIPQSVQQNGSIYIHVYFTKSGFHPDPRQKALYRRLATVHMSRMINKYKRRRFQKTKNLLTGETEADPEMIKRAEDYGPVEVISHWHPNITINIVDDHTPWVKGSVPPPLDQYVKFDAVSGDYYPIIYFNDYWNLQKDYYPINESLASLPLRVSFCPLSLWRWQLYAAQSTKSPWNFLGDELYEQSDEEQDSVKVALLETNP
modifications: bait human Fc-tagged dimer
B3: ADP377 (protein)
chain: FSECNKCDEKKERGLPAGDVLEPVQKPHEGPGEMGKPVVIPKEDQEKMKEMFKINQFNLMASEMIALNRSLPDVRLEGCKTKVYPDNLPTTSVVIVFHNEAWSTLLRTVHSVINRSPRHMIEEIVLVDDASERDFLKRPLESYVKKLKVPVHVIRMEQRSGLIRARLKGAAVSKGQVITFLDAHCECTVGWLEPLLARIKHDRRTVVCPIIDVISDDTFEYMAGSDMTYGGFNWKLNFRWYPVPQREMDRRKGDRTLPVRTPTMAGGLFSIDRDYFQEIGTYDAGMDIWGGENLEISFRIWQCGGTLEIVTCSHVGHVFRKATPYTFPGGTGQIINKNNRRLAEVWMDEFKNFFYIISPGVTKVDYGDISSRVGLRHKLQCKPFSWYLENIYPDSQIPRHYFSLGEIRNVETNQCLDNMARKENEKVGIFNCHGMGGNQVFSYTANKEIRTDDLCLDVSKLNGPVTMLKCHHLKGNQLWEYDPVKLTLQHVNSNQCLDKATEEDSQVPSIRDCNGSRSQQWLLRNVTLPEIF
modifications: bait human Fc-tagged dimer
B4: ADP151 (protein)
chain: MALTLSVLICLGLSVGPRTCVQAGTLPKPTLWAEPASVIARGKPVTLWCQGPLETEEYRLDKEGLPWARKRQNPLEPGAKAKFHIPSTVYDSAGRYRCYYETPAGWSEPSDPLELVATGFYAEPTLLALPSPVVASGGNVTLQCDTLDGLLTFVLVEEEQKLPRTLYSQKLPKGPSQALFPVGPVTPSCRWRFRCYYYYRKNPQVWSNPSDLLEILVPGVSRKPSLLIPQGSVVARGGSLTLQCRSDVGYDIFVLYKEGEHDLVQGSGQQPQAGLSQANFTLGPVSRSHGGQYRCYGAHNLSPRWSAPSDPLDILIAGLIPDIPALSVQPGPKVASGENVTLLCQSWHQIDTFFLTKEGAAHPPLCLKSKYQSYRHQAEFSMSPVTSAQGGTYRCYSAIRSYPYLLSSPSYPQELVVSGPSGDPSLSPTGSTPTPGPEDQPLTPTGLDPQSGLG
modifications: bait human Fc-tagged dimer
B5: ADP261 (protein)
chain: KWETKNCSVSSTNANDITQSLTGKGNDSEEEMRFQEVFMEHMSNMEKRIQHILDMEANLMDTEHFQNFSMTTDQRFNDILLQLSTLFSSVQGHGNAIDEISKSLISLNTTLLDLQLNIENLNGKIQENTFKQQEEISKLEERVYNVSAEIMAMKEEQVHLEQEIKGEVKVLNNITNDLRLKDWEHSQTLRNITLIQGPPGPPGEKGDRGPTGESGPRGFPGPIGPPGLKGDRGAIGFPGSRGLPGYAGRPGNSGPKGQKGEKGSGNTLTPFTKVRLVGGSGPHEGRVEILHSGQWGTICDDRWEVRVGQVVCRSLGYPGVQAVHKAAHFGQGTGPIWLNEVFCFGRESSIEECKIRQWGTRACSHSEDAGVTCTL
modifications: bait human Fc-tagged dimer
B6: ADP267 (protein)
chain: CKYKKSSGQLWSWMVCLAGLCAVCLLILSPFWGLILFSVSCFLMYTYLSGQELLPVDQKAVLVTGGDCGLGHALCKYLDELGFTVFAGVLNENGPGAEELRRTCSPRLSVLQMDITKPVQIKDAYSKVAAMLQDRGLWAVINNAGVLGFPTDGELLLMTDYKQCMAVNFFGTVEVTKTFLPLLRKSKGRLVNVSSMGGGAPMERLASYGSSKAAVTMFSSVMRLELSKWGIKVASIQPGGFLTNIAGTSDKWEKLEKDILDHLPAEVQEDYGQDYILAQRNFLLLINSLASKDFSPVLRDIQHAILAKSPFAYYTPGKGAYLWICLAHYLPIGIYDYFAKRHFGQDKPMPRALRMPNYKKKAT
modifications: bait human Fc-tagged dimer
B7: ADP320 (protein)
chain: MAAAPGLLVWLLVLRLPWRVPGQLDPSTGRRFSEHKLCADDECSMLMYRGEALEDFTGPDCRFVNFKKGDPVYVYYKLARGWPEVWAGSVGRTFGYFPKDLIQVVHEYTKEELQVPTDETDFVCFDGGRDDFHNYNVEELLGFLELYNSAATDSEKAVEKTLQDMEKNPELSKEREPEPEPVEANSEESDSVFSENTEDLQEQFTTQKHHSHANSQANHAQGEQASFESFEEMLQDKLKVPESENNKTSNSSQVSNEQDKIDAYKLLKKEMTLDLKTKFGSTADALVSDDETTRLVTSLEDDFDEELDTEYYAVGKEDEENQEDFDELPLLTFTDGEDMKTPAKSGVEKYPTDKEQNSNEEDKVQLTVPPGIKNDDKNILTTWGDTIFSIVTGGEETRDTMDLESSSSEEEKEDDDDALVPDSKQGKPQSATDYSDPDNVDDGLFIVDIPKTNNDKEVNAEHHIKGKGRGVQESKRGLVQDKTELEDENQEGMTVHSSVHSNNLNSMPAAEKGKDTLKSAYDDTENDLKGAAIHISKGMLHEEKPGEQILEGGSESESAQKAAGNQMNDRKIQQESLGSAPLMGDDHPNASRDSVEGDALVNGAKLHTLSVEHQREELKEELVLKTQNQPRFSSPDEIDLPRELEDEVPILGRNLPWQQERDVAATASKQMSEKIRLSEGEAKEDSLDEEFFHHKAMQGTEVGQTDQTDSTGGPAFLSKVEEDDYPSEELLEDENAINAKRSKEKNPGNQGRQFDVNLQVPDRAVLGTIHPDPEIEESKQETSMILDSEKTSETAAKGVNTGGREPNTMVEKERPLADKKAQRPFERSDFSDSIKIQTPELGEVFQNKDSDYLKNDNPEEHLKTSGLAGEPEGELSKEDHENTEKYMGTESQGSAAAEPEDDSFHWTPHTSVEPGHSDKREDLLIISSFFKEQQSLQRFQKYFNVHELEALLQEMSSKLKSAQQESLPYNMEKVLDKVFRASESQILSIAEKMLDTRVAENRDLGMNENNIFEEAAVLDDIQDLIYFVRYKHSTAEETATLVMAPPLEEGLGGAMEEMQPLHEDNFSREKTAELNVQVPEEPTHLDQRVIGDTHASEVSQKPNTEKDLDPGPVTTEDTPMDAIDANKQPETAAEEPASVTPLENAILLIYSFMFYLTKSLVATLPD
modifications: bait human Fc-tagged dimer
B8: ADP155 (protein)
chain: MAPARLFALLLFFVGGVAESIRETEVIDPQDLLEGRYFSGALPDDEDVVGPGQESDDFELSGSGDLDDLEDSMIGPEVVHPLVPLDNHIPERAGSGSQVPTEPKKLEENEVIPKRISPVEESEDVSNKVSMSSTVQGSNIFERTEV
modifications: bait human Fc-tagged dimer
B9: ADP317 (protein)
chain: MGSWALLWPPLLFTGLLVRPPGTMAQAQYCSVNKDIFEVEENTNVTEPLVDIHVPEGQEVTLGALSTPFAFRIQGNQLFLNVTPDYEEKSLLEAQLLCQSGGTLVTQLRVFVSVLDVNDNAPEFPFKTKEIRVEEDTKVNSTVIPETQLQAEDRDKDDILFYTLQEMTAGASDYFSLVSVNRPALRLDRPLDFYERPNMTFWLLVRDTPGENVEPSHTATATLVLNVVPADLRPPWFLPCTFSDGYVCIQAQYHGAVPTGHILPSPLVLRPGPIYAEDGDRGINQPIIYSIFRGNVNGTFIIHPDSGNLTVARSVPSPMTFLLLVKGQQADLARYSVTQVTVEAVAAAGSPPRFPQRLYRGTVARGAGAGVVVKDAAAPSQPLRIQAQDPEFSDLNSAITYRITNHSHFRMEGEVVLTTTTLAQAGAFYAEVEAHNTVTSGTATTVIEIQVSEQEPPSTDVPPSPEAGGTTGPWTSTTSEVPRPPEPSQGPSTTSSGGGTGPHPPSGTTLRPPTSSTPGGPPGAENSTSHQPATPGGDTAQTPKPGTSQPMPPGVGTSTSHQPATPSGGTAQTPEPGTSQPMPPSMGTSTSHQPATPGGGTAQTPEAGTSQPMPPGMGTSTSHQPTTPGGGTAQTPEPGTSQPMPLSKSTPSSGGGPSEDKRFSVVDMA
modifications: bait human Fc-tagged dimer
B10: ADP115 (protein)
chain: MARPGQRWLGKWLVAMVVWALCRLATPLAKNLEPVSWSSLNPKFLSGKGLVIYPKIGDKLDIICPRAEAGRPYEYYKLYLVRPEQAAACSTVLDPNVLVTCNRPEQEIRFTIKFQEFSPNYMGLEFKKHHDYYITSTSNGSLEGLENREGGVCRTRTMKIIMKVGQDPNAVTPEQLTTSRPSKEADNTVKMATQAPGSRGSLGDSDGKHETVNQEEKSGPGASGGSSGDPDGFFNSKVAL
modifications: bait human Fc-tagged dimer
B11: ADP284 (protein)
chain: SNAYSSPSVVLASYNHDGTRNILDDFREAYFWLRQNTDEHARVMSWWDYGYQIAGMANRTTLVDNNTWNNSHIALVGKAMSSNETAAYKIMRTLDVDYVLVIFGGVIGYSGDDINKFLWMVRIAEGEHPKDIRESDYFTPQGEFRVDKAGSPTLLNCLMYKMSYYRFGEMQLDFRTPPGFDRTRNAEIGNKDIKFKHLEEAFTSEHWLVRIYKVKAPDNRETLDHKPRVTNIFPKQKYLSKKTTKRKRGYIKNKLVFKKGKKISKKTV
modifications: bait human Fc-tagged dimer
B12: ADP379 (protein)
chain: PCPDRPASQRMWRIDYSAAVIYDFLAVDDINGDRIQDVLFLYKNTNSSNNFSRSCVDEGFSSPCTFAAAVSGANGSTLWERPVAQDVALVECAVPQPRGSEAPSACILVGRPSSFIAVNLFTGETLWNHSSSFSGNASILSPLLQVPDVDGDGAPDLLVLTQEREEVSGHLYSGSTGHQIGLRGSLGVDGESGFLLHVTRTGAHYILFPCASSLCGCSVKGLYEKVTGSGGPFKSDPHWESMLNATTRRMLSHSSGAVRYLMHVPGNAGADVLLVGSEAFVLLDGQELTPRWTPKAAHVLRKPIFGRYKPDTLAVAVENGTGTDRQILFLDLGTGAVLCSLALPSLPGGPLSASLPTADHRSAFFFWGLHELGSTSETETGEARHSLYMFHPTLPRVLLELANVSTHIVAFDAVLFEPSRHAAYILLTGPADSEAPGLVSVIKHKVRDLVPSSRVVRLGEGGPDSDQAIRDRFSRLRYQSEA
modifications: bait human Fc-tagged dimer
B13: ADP268 (protein)
chain: WEYGDLHLFGPNQRPAPCYDPCEAVLVESIPEGLDFPNASTGNPSTSQAWLGLLAGAHSSLDIASFYWTLTNNDTHTQEPSAQQGEEVLRQLQTLAPKGVNVRIAVSKPSGPQPQADLQALLQSGAQVRMVDMQKLTHGVLHTKFWVVDQTHFYLGSANMDWRSLTQVKELGVVMYNCSCLARDLTKIFEAYWFLGQAGSSIPSTWPRFYDTRYNQETPMEICLNGTPALAYLASAPPPLCPSGRTPDLKALLNVVDNARSFIYVAVMNYLPTLEFSHPHRFWPAIDDGLRRATYERGVKVRLLISCWGHSEPSMRAFLLSLAALRDNHTHSDIQVKLFVVPADEAQARIPYARVNHNKYMVTERATYIGTSNWSGNYFTETAGTSLLVTQNGRGGLRSQLEAIFLRDWDSPYSHDLDTSADSVGNACRLL
modifications: bait human Fc-tagged dimer

Sequence of Circumsporozoite protein (CSP) (Q7K740 19-374): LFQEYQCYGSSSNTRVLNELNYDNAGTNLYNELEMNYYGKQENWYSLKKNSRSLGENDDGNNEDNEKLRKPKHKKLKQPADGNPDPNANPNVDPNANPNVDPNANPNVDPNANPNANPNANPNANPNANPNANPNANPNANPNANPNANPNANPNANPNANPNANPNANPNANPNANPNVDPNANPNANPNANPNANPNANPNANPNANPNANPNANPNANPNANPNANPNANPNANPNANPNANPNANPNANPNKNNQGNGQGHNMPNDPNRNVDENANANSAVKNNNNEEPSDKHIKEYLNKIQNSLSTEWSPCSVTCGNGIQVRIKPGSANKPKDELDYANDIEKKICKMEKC

The assay concerns the target Circumsporozoite protein (CSP) (Plasmodium falciparum (isolate 3D7), UniProt Q7K740). The experiment in a line: AVEXIS screen signal:noise (double-corrected).
Consider B1, for which the binding score was 1.36.
The molecule B2 returned a binding score of 1.73.
The molecule B3 registered a binding score of 0.747.
In turn, B4 showed a binding score of 1.33.
B5 yielded a binding score of 0.837.
Consider B6, for which the binding score is 0.806.
The result for B7 reads 1.04; that for B8, 0.582; that for B9, 2.47.
As for B10, the figure is 1.09.
In turn, B11 displayed a binding score of 0.868.
In turn, B12 came in with a binding score of 2.44.
As for B13, the figure is 0.585.
